Measurements: article PMC6370846

Legend:
[1] = dual-color fluorescence cross-correlation spectroscopy (FCCS); self-aggregation: Cy5-labelled and Oregon green 488-labelled copies of the same construct mixed in equal volumes (125 µL each) at 536 µM monomer-equivalent, incubated at 310 K with shaking at 250 rpm for up to 24 h; aliquots …; details: other: dual-color fluorescence cross-correlation spectroscopy (FCCS)
[2] = molecular target: α-synuclein tandem octamer (αS-8), C-terminally Cys-tagged, dye-labelled; assay: dual-color fluorescence cross-correlation spectroscopy (FCCS); self-aggregation: Cy5-labelled and Oregon green 488-labelled copies of the same construct mixed in equal volumes (125 µL each) at 536 µM monomer-equivalent, incubated at 310 K with shaking at 250 rpm for up to 24 h; aliquots diluted in PBS to ~134 pM and measured at 298 K; fractions nrg/nr and nrg/ng fitted to single-exponential growth
[3] = molecular target: α-synuclein tandem tetramer (αS-4), C-terminally Cys-tagged, dye-labelled; assay: as above
[4] = molecular target: α-synuclein tandem dimer (αS-2), C-terminally Cys-tagged, dye-labelled; assay: dual-color fluorescence cross-correlation spectroscopy (FCCS); co-aggregation with swapped fluorophores: Cy5-labelled monomer mixed with Oregon green 488-labelled tandem oligomer, equal volumes (125 µL each) at 536 µM monomer-equivalent, 310 K, shaking at 250 rpm, up to 24 h; aliquots diluted in PBS to ~134 pM and measured at 298 K; single-exponential fits
[5] = molecular target: α-synuclein tandem octamer (αS-8), C-terminally Cys-tagged, dye-labelled; assay: as above
[6] = molecular target: α-synuclein tandem tetramer (αS-4), C-terminally Cys-tagged, dye-labelled; assay: as above
[7] = molecular target: α-synuclein monomer (αS-1), C-terminally Cys-tagged, dye-labelled; assay: dual-color fluorescence cross-correlation spectroscopy (FCCS); self-aggregation: Cy5-labelled and Oregon green 488-labelled copies of the same construct mixed in equal volumes (125 µL each) at 536 µM monomer-equivalent, incubated at 310 K with shaking at 250 rpm for up to 24 h; aliquots diluted in PBS to ~134 pM and measured at 298 K; fractions nrg/nr and nrg/ng fitted to single-exponential growth
[8] = molecular target: α-synuclein tandem dimer (αS-2), C-terminally Cys-tagged, dye-labelled; assay: dual-color fluorescence cross-correlation spectroscopy (FCCS); co-aggregation: Cy5-labelled tandem oligomer mixed with Oregon green 488-labelled monomer, equal volumes (125 µL each) at 536 µM monomer-equivalent, 310 K, shaking at 250 rpm, up to 24 h; aliquots diluted in PBS to ~134 pM and measured at 298 K; single-exponential fits
[9] = molecular target: α-synuclein tandem octamer (αS-8), C-terminally Cys-tagged, dye-labelled; assay: as above
[10] = molecular target: α-synuclein tandem tetramer (αS-4), C-terminally Cys-tagged, dye-labelled; assay: as above
[11] = molecular target: α-synuclein tandem dimer (αS-2), C-terminally Cys-tagged, dye-labelled; assay: dual-color fluorescence cross-correlation spectroscopy (FCCS); self-aggregation: Cy5-labelled and Oregon green 488-labelled copies of the same construct mixed in equal volumes (125 µL each) at 536 µM monomer-equivalent, incubated at 310 K with shaking at 250 rpm for up to 24 h; aliquots diluted in PBS to ~134 pM and measured at 298 K; fractions nrg/nr and nrg/ng fitted to single-exponential growth

Substance: α-synuclein tandem octamer (αS-8), C-terminally Cys-tagged, dye-labelled
- percent incorporated into dual-color aggregates after 24 hr [1]: ~35% of Cy5-labelled αS-8
- |A| of nrg/ng (extent, percent of Oregon green-labelled species in dual-color aggregates) [1]: 26%
- |A| of nrg/nr (extent, percent of Cy5-labelled species in dual-color aggregates) [1]: 29%
- k of nrg/ng (rate of exponential growth of aggregation) [2]: 0.06 h⁻¹
- k of nrg/nr (rate of exponential growth of aggregation) [2]: 0.15 h⁻¹

Substance: α-synuclein tandem tetramer (αS-4), C-terminally Cys-tagged, dye-labelled
- percent incorporated into dual-color aggregates after 24 hr [1]: ~15% of Cy5-labelled αS-4
- |A| of nrg/ng (extent, percent of Oregon green-labelled species in dual-color aggregates) [1]: 17%
- |A| of nrg/nr (extent, percent of Cy5-labelled species in dual-color aggregates) [1]: 14%
- k of nrg/ng (rate of exponential growth of aggregation) [3]: 0.18 h⁻¹
- k of nrg/nr (rate of exponential growth of aggregation) [3]: 0.17 h⁻¹

Substance: α-synuclein monomer (αS-1), C-terminally Cys-tagged, dye-labelled (natural protein)
- k of nrg/ng (rate of exponential growth of co-aggregation) [4]: 0.2 h⁻¹
- k of nrg/nr (rate of exponential growth of co-aggregation) [4]: 0.2 h⁻¹
- |A| of nrg/ng (extent, percent of Oregon green-labelled αS-2 in dual-color co-aggregates) [4]: 4%
- |A| of nrg/nr (extent, percent of Cy5-labelled αS-1 in dual-color co-aggregates) [4]: 5%
- k of nrg/ng (rate of exponential growth of co-aggregation) [5]: 0.2 h⁻¹
- k of nrg/nr (rate of exponential growth of co-aggregation) [5]: 0.05 h⁻¹
- |A| of nrg/ng (extent, percent of Oregon green-labelled αS-8 in dual-color co-aggregates) [5]: 11%
- |A| of nrg/nr (extent, percent of Cy5-labelled αS-1 in dual-color co-aggregates) [5]: 4%
- k of nrg/ng (rate of exponential growth of co-aggregation) [6]: 0.5 h⁻¹
- k of nrg/nr (rate of exponential growth of co-aggregation) [6]: 2 h⁻¹
- |A| of nrg/ng (extent, percent of Oregon green-labelled αS-4 in dual-color co-aggregates) [6]: 20%
- |A| of nrg/nr (extent, percent of Cy5-labelled αS-1 in dual-color co-aggregates) [6]: 1%
- k of nrg/ng (rate of exponential growth of aggregation) [7]: 0.035 h⁻¹
- k of nrg/nr (rate of exponential growth of aggregation) [7]: 0.043 h⁻¹
- k of nrg/ng (rate of exponential growth of co-aggregation) [8]: 0.4 h⁻¹
- k of nrg/nr (rate of exponential growth of co-aggregation) [8]: 0.11 h⁻¹
- |A| of nrg/ng (extent, percent of Oregon green-labelled αS-1 in dual-color co-aggregates) [8]: 1.7%
- |A| of nrg/nr (extent, percent of Cy5-labelled αS-2 in dual-color co-aggregates) [8]: 4%
- k of nrg/ng (rate of exponential growth of co-aggregation) [9]: 0.4 h⁻¹
- k of nrg/nr (rate of exponential growth of co-aggregation) [9]: 0.12 h⁻¹
- |A| of nrg/ng (extent, percent of Oregon green-labelled αS-1 in dual-color co-aggregates) [9]: 1%
- |A| of nrg/nr (extent, percent of Cy5-labelled αS-8 in dual-color co-aggregates) [9]: 40%
- k of nrg/ng (rate of exponential growth of co-aggregation) [10]: 0.8 h⁻¹
- k of nrg/nr (rate of exponential growth of co-aggregation) [10]: 0.23 h⁻¹
- |A| of nrg/ng (extent, percent of Oregon green-labelled αS-1 in dual-color co-aggregates) [10]: 2%
- |A| of nrg/nr (extent, percent of Cy5-labelled αS-4 in dual-color co-aggregates) [10]: 11%

Substance: α-synuclein tandem dimer (αS-2), C-terminally Cys-tagged, dye-labelled
- percent incorporated into dual-color aggregates after 24 hr [1]: only ~5% of αS-1 and αS-2
- |A| of nrg/ng (extent, percent of Oregon green-labelled species in dual-color aggregates) [1]: 4%
- |A| of nrg/nr (extent, percent of Cy5-labelled species in dual-color aggregates) [1]: 5%
- k of nrg/ng (rate of exponential growth of aggregation) [11]: 0.2 h⁻¹
- k of nrg/nr (rate of exponential growth of aggregation) [11]: 0.23 h⁻¹

Substance: α-synuclein monomer (αS-1), C-terminally Cys-tagged, dye-labelled
- percent incorporated into dual-color aggregates after 24 hr [1]: only ~5% of αS-1 and αS-2
- |A| of nrg/ng (extent, percent of Oregon green-labelled species in dual-color aggregates) [1]: 8%
- |A| of nrg/nr (extent, percent of Cy5-labelled species in dual-color aggregates) [1]: 6%
